Assay results: patent publication US20260209363A1 (Chugai, published 2026)

T1: Mouse MOG (R&D system) (mouse, UniProt Q61885 29-156, limits assumed)
T1 construct: also called mouse soluble MOG; soluble MOG
T1 sequence (looked up): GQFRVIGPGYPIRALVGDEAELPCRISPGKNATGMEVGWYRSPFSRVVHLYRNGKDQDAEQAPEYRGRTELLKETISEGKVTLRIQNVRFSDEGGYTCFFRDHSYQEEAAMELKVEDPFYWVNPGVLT

T2: His-tagged mouse MOG (8536-MO, R&D Systems) (mouse, UniProt Q61885 29-156, limits assumed)
T2 construct: Bought; also called mouse soluble MOG; not shown: His tag
T2 sequence (looked up): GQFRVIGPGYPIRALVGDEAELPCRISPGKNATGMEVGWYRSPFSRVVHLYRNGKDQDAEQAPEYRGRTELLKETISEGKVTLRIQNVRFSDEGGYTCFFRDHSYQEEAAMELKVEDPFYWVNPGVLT


Legend:
Mouse MOG (R&D system) = molecular target: T1, Mouse MOG (R&D system); assay: SPR (Biacore T200), antibody captured by anti-human Fc antibody, mouse MOG as analyte, 25 degrees C, no albumin
Method: Binding activities of the antibodies produced in Example 10 against mouse MOG were assessed using Biacore T200 (Cytiva).
As the running buffer, 50 mM Na Phosphate (pH 7.4), 150 mM NaCl, 0.05% Tween 20, and 0.005% NaN₃ was used, and the assessment was performed at 25 degrees C. First, anti-human Fc antibody (Cytiva) was used as a ligand-capturing molecule. Anti-human Fc antibody (Cytiva) was solid-phased on a Series S Sensor Chip CM4 (Cytiva) using an Amine Coupling Kit (Cytiva). Antibody solutions prepared using the running buffer was allowed to interact with this CM4 sensor chip to capture approximately 480 RU of the antibody. Mouse MOG (R&D system) was diluted to 0, 10, 40, 160, and 640 nM with the running buffer, and then bound to the captured antibody. The chip was regenerated using 3 M MgCl₂, and measurements were performed by repeatedly capturing antibodies. Dissociation constant (KD) of the respective antibodies for mouse MOG was calculated using Biacore T200 Evaluation Software 2.0. Specifically, the association rate constant ka (L/mol/s) and the dissociation rate constant kd (1/s) were calculated by global fitting of the sensorgrams obtained by measurement with the 1:1 Langmuir binding model, and the dissociation constant KD (mol/L) was calculated from these values.

[1] = molecular target: T2, His-tagged mouse MOG (8536-MO, R&D …); assay: Gyrolab xP immunoassay of antibody-antigen complex in C57BL/6J mouse plasma (albumin present), 2 nM antibody, 9 nM His-tagged mouse MOG
Method: First, to bind the albumin-binding domain to albumin in plasma, each of the anti-mouse MOG antibodies mentioned above were diluted to 8 nM using C57BL/6J mouse plasma, and then incubated at room temperature for 40 minutes. Next, for binding of the anti-mouse MOG antibody to the target antigen, one equivalent of His-tagged mouse MOG (8536-MO, R&D Systems) diluted to 38 nM in mouse plasma was added to the antibody solutions, and then the solutions were incubated at room temperature for 1 hour 25 minutes.
To detect the antibody-antigen complexes, first, the anti-delta GK antibody (AF647-anti-delta GK) was labeled using an Alexa flour 647 labeling kit (A20186, Thermo Fisher Scientific) according to the attached protocols. […] (the final concentrations were 2 nM for the antibody, 9 nM for His-tagged mouse MOG, and 67 nM for AF647-anti-delta GK).
Measurement of antigen-antibody complexes were performed using Gyrolab xP. For the measurements using Gyrolab xP, Gyrolab Bioaffy 200 (P0004180, Gyros Protein Technologies) was used as the measurement disc. Biotinylated anti-His-tagged antibody (BAM050, R&D Systems) diluted to 10 micro g/mL with PBS 0.05% Tween 20 was added to the measurement disc, and then solid-phased on the reaction layer in the disc. A mixed solution of the labeled anti-delta GK antibody, anti-mouse MOG antibody (albumin switch molecule), and mouse MOG, incubated as described above, was added to the disc, and the anti-mouse MOG antibody-mouse MOG-AF647-anti-delta GK complex was captured by the solid-phased antibody. The amount of the captured complex was detected by the fluorescence signal of AF647 (Detect PMT 25%). The fluorescence signal of AF647 was analyzed by Gyro Evaluator (version 3.6.2.30, Gyros Protein Technologies).

Binder | Kd (Mouse MOG (R&D system)) | koff (Mouse MOG (R&D system)) | kon (Mouse MOG (R&D system)) | decrease in the signal derived from the complex, compared to MOG//IC17 [1]
ABD094(H/L)-MOG//IC17 (bispecific antibody, human IgG1, kappa, also called ABD094(H/L)-MOG307//IC17; anti-MOG albumin switch molecule) heavy 1: LAEAKEAANAELDSYGVSDFYKRLIDKAKTVEGVEALKDAILAALPRVTLRESGPTLVKPTQTLTLTCTFSGFSLSTSGVGVGWIRQPPGKALEWLALIFWDDDSHYSPSLKSRLTITKDTSKNQVVLTMTNMDPVDTATYYCARYYFGSGSYFPSYWYFDLWGRGTLVTVSSASTKGPSVFPLAPSSKSTSGGTAALGCLVEDYFPEPVTVSWNSGALTSGVHTFPAVLQSSGLYSLSSVVTVPSSSLGTQTYICNVNHKPSNTKVDERVEPKSCDKTHTCPPCPAPELRRGPSVFLFPPKPKDTLMISRTPEVTCVVVDVSHEDPEVKFNWYVDGVEVHNAKTKPREEQYNSTYRVVSVLTVLHQDWLNGKEYKCKVSNKALPAPIEKTISKAKGQPREPQVCTLPPSREEMTKNQVSLSCAVKGFYPSDIAVEWESNGQPENNYKTTPPVLDSDGSFFLVSKLTVDKSRWQQGNVFSCSVMHEALHNHYTQKSLSLSP light 1: not shown heavy 2: not shown light 2: QVQLQQSGPQLVRPGASVKISCKASGYSFTSYWMHWVNQRPGQGLEWIGMIDPSYSETRLNQKFKDKATLTVDKSSSTAYMQLSSPTSEDSAVYYCALYGNYFDYWGQGTTLTVSSASVAAPSVFIFPPSDEQLKSGTASVVCLLNNFYPREAKVQWKVDNALQSGNSQESVTEQDSKDSTYSLSSTLTLSKADYEKHKVYACEVTHQGLSSPVTKSFNRGEC | 1.91 nM | 1.39e-05 s⁻¹ | 7260 M⁻¹ s⁻¹ | 90%
ABD094(H/L).N02-MOG//IC17 (bispecific antibody, human IgG1, kappa, ABD094 linked via N02 linker at VH and VL N-termini of the MOG arm; also called ABD094.N02(H/L)-MOG//IC17) heavy 1: LAEAKEAANAELDSYGVSDFYKRLIDKAKTVEGVEALKDAILAALPGGGGSRVTLRESGPTLVKPTQTLTLTCTFSGFSLSTSGVGVGWIRQPPGKALEWLALIFWDDDSHYSPSLKSRLTITKDTSKNQVVLTMTNMDPVDTATYYCARYYFGSGSYFPSYWYFDLWGRGTLVTVSSASTKGPSVFPLAPSSKSTSGGTAALGCLVEDYFPEPVTVSWNSGALTSGVHTFPAVLQSSGLYSLSSVVTVPSSSLGTQTYICNVNHKPSNTKVDERVEPKSCDKTHTCPPCPAPELRRGPSVFLFPPKPKDTLMISRTPEVTCVVVDVSHEDPEVKFNWYVDGVEVHNAKTKPREEQYNSTYRVVSVLTVLHQDWLNGKEYKCKVSNKALPAPIEKTISKAKGQPREPQVCTLPPSREEMTKNQVSLSCAVKGFYPSDIAVEWESNGQPENNYKTTPPVLDSDGSFFLVSKLTVDKSRWQQGNVFSCSVMHEALHNHYTQKSLSLSP light 1: not shown heavy 2: not shown light 2: QVQLQQSGPQLVRPGASVKISCKASGYSFTSYWMHWVNQRPGQGLEWIGMIDPSYSETRLNQKFKDKATLTVDKSSSTAYMQLSSPTSEDSAVYYCALYGNYFDYWGQGTTLTVSSASVAAPSVFIFPPSDEQLKSGTASVVCLLNNFYPREAKVQWKVDNALQSGNSQESVTEQDSKDSTYSLSSTLTLSKADYEKHKVYACEVTHQGLSSPVTKSFNRGEC | 0.0607 nM | 3.46e-07 s⁻¹ | 5700 M⁻¹ s⁻¹ | 79%
ABD094(H/L).N10-MOG//IC17 (bispecific antibody, human IgG1, kappa, ABD094 linked via N10 linker (G) at VH and VL N-termini of the MOG arm; also called ABD094.N10(H/L)-MOG//IC17; ABD094(H/L).N10-MOG307//IC17) heavy 1: LAEAKEAANAELDSYGVSDFYKRLIDKAKTVEGVEALKDAILAALPGRVTLRESGPTLVKPTQTLTLTCTFSGFSLSTSGVGVGWIRQPPGKALEWLALIFWDDDSHYSPSLKSRLTITKDTSKNQVVLTMTNMDPVDTATYYCARYYFGSGSYFPSYWYFDLWGRGTLVTVSSASTKGPSVFPLAPSSKSTSGGTAALGCLVEDYFPEPVTVSWNSGALTSGVHTFPAVLQSSGLYSLSSVVTVPSSSLGTQTYICNVNHKPSNTKVDERVEPKSCDKTHTCPPCPAPELRRGPSVFLFPPKPKDTLMISRTPEVTCVVVDVSHEDPEVKFNWYVDGVEVHNAKTKPREEQYNSTYRVVSVLTVLHQDWLNGKEYKCKVSNKALPAPIEKTISKAKGQPREPQVCTLPPSREEMTKNQVSLSCAVKGFYPSDIAVEWESNGQPENNYKTTPPVLDSDGSFFLVSKLTVDKSRWQQGNVFSCSVMHEALHNHYTQKSLSLSP light 1: not shown heavy 2: not shown light 2: QVQLQQSGPQLVRPGASVKISCKASGYSFTSYWMHWVNQRPGQGLEWIGMIDPSYSETRLNQKFKDKATLTVDKSSSTAYMQLSSPTSEDSAVYYCALYGNYFDYWGQGTTLTVSSASVAAPSVFIFPPSDEQLKSGTASVVCLLNNFYPREAKVQWKVDNALQSGNSQESVTEQDSKDSTYSLSSTLTLSKADYEKHKVYACEVTHQGLSSPVTKSFNRGEC | 5.53 nM | 9.46e-06 s⁻¹ | 1710 M⁻¹ s⁻¹ | 83%
